Data as given in US20250346673A1 (DUALITY BIOLOGICS SUZHOU, published 2025).
Substitutions are numbered along the chain they refer to.

What was measured:
human BDCA2 [1] = molecular target: T1, human BDCA2 (human, UniProt Q8WTT0 1-213); experiment: cell-based or functional assay
T1 sequence (looked up): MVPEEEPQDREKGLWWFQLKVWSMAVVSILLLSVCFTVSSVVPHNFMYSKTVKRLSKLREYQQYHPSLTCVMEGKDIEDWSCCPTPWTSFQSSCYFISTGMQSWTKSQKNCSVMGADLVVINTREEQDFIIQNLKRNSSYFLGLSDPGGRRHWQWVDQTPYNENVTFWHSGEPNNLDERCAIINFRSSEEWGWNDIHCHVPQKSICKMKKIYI

cynomolgus BDCA2 = molecular target: T2, cynomolgus BDCA2 (cynomolgus monkey, UniProt A0A2K5UWP4 1-212); experiment: FACS on 293F-cynoBDCA2 cells; EC50 table under the plot, unit from the x axis (nM) [continued) e.]
T2 construct: whole, on cells; also called Cyno BDCA2; cynoBDCA2
T2 sequence: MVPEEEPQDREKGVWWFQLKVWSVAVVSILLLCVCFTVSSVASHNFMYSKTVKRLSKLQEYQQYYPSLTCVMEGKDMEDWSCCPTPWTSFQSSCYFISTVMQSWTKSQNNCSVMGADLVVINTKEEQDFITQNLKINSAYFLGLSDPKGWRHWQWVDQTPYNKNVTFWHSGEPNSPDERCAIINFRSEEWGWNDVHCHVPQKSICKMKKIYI
Description: (§1) The cells were recovered and resuspended to 2×10⁶/mL with FACS buffer (PBS+2% FBS). The cells were added to 3799 cell plates (Corning) at 100 μL/well, and the supernatant was discarded after centrifugation at 300 g. The antibodies were serially diluted with FACS buffer (Id.), the diluted antibodies were added to centrifuged cells and the cells were resuspended. The cells were incubated at 4° C. for 1 h. The incubated cells were then centrifuged at […] for 5 min and washed twice with FACS buffer. 100 μL Donkey anti-Mouse IgG (H+L) Highly Cross-Adsorbed Secondary Antibody-Alexa Fluor 488 (Invitrogen, A21202; 1:1000) secondary antibody was added to the cells, which were washed twice with FACS buffer after incubation at 4° C. for 1 h, resuspended with PBS, analyzed with FACS (BD FACS CantoTM II) instrument. The curve was fitted with GraphPad Prism6, and EC₅₀ values were calculated.

human BDCA2 [2] = molecular target: T1, human BDCA2; experiment: FACS on CHOK1-hBDCA2 cells; EC50 table under the plot, unit from the x axis (nM) [continued) e.]
Description: as §1

human FcγRIIA (R167) [3] = molecular target: T3, human FcγRIIA (R167) (human, UniProt P12318 36-218, limits assumed, biotinylated (site not stated)); experiment: SPR (BIAcore 8K), biotinylated FcγRIIA (R167) on SA chip, antibody as analyte, 1:1 binding
T3 construct: also called Fe γ RIIA(R167); Fcγ RIJA (R167)
T3 sequence (looked up): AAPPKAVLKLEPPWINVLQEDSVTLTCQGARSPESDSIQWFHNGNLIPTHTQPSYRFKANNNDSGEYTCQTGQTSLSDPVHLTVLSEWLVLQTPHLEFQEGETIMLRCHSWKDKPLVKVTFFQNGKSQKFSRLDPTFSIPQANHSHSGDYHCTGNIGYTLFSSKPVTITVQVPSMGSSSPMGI
Description: (§2) Antibody kinetics or affinity parameters were measured using BIAcore 8K and freshly fixed biotinylated human Fe γ RIIA(R167)/Fc γ RIIA (H167) SA chips. The experiment was run at 25° C. with a running buffer of 1×HBS-EP+(10 mM HEPES pH 7.4, 150 mM NaCl, 3 mM EDTA, 0.05% Surfactant P20). […] The binding and dissociation times of the antibody were 60 and 90 seconds, respectively. Two zero concentration samples are used to remove background signals. The sample was injected in a multi cycle manner, the analyte can be fully dissociated from the chip surface at the end of each cycle, and no regeneration step was applied. Data analysis was perform using Biacore Insight Evaluation Software (Version 2.0.15.12933). After deducting the reference channel (flow cell 1) and two zero concentration signals, affinity analysis was performed using a 1:1 binding model or steady-state model for curve fitting and calculation of kinetic parameters.

human FcγRIIA (H167) [4] = molecular target: T4, human FcγRIIA (H167) (human, UniProt P12318 36-218, limits assumed, biotinylated (site not stated)); experiment: SPR, FcγRIIA (H167); against the wild-type Fc antibody Hu033-03
T4 construct: also called Fey RIIA (H167)
T4 sequence (looked up): T3 sequence (looked up) with R132H
Description: as §2

human FcγRIIA (R167) [5] = molecular target: T3, human FcγRIIA (R167); experiment: SPR, FcγRIIA (R167); against the wild-type Fc antibody Hu033-03
Description: as §2

human FcγRIIA (H167) [6] = molecular target: T4, human FcγRIIA (H167); experiment: SPR (BIAcore 8K), biotinylated FcγRIIA (H167) on SA chip, antibody as analyte, 1:1 binding
Description: as §2

human FcγRIIA (R167) [7] = molecular target: T3, human FcγRIIA (R167); experiment: SPR, FcγRIIA (R167); against the wild-type Fc antibody Hu033-20
Description: as §2

human FcγRIIA (H167) [8] = molecular target: T4, human FcγRIIA (H167); experiment: SPR, FcγRIIA (H167); against the wild-type Fc antibody Hu033-20
Description: as §2

[9] = molecular target: T5, Human BDCA2 Fc recombinant protein (human); experiment: ELISA, coated humanBDCA2 Fc
T5 construct: Human IgG1 Fc N-terminal of the BDCA2 extracellular domain (Asn45-Ile213), fused by a linker; also called BDCA2-Fc protein
Description: HumanBDCA2 Fc protein or cynoBDCA2 His protein was diluted with PBS to 1 μg/mL and added to ELISA microplates at 100 μL/well and incubated at 4° C. overnight. The plates were blocked with ELISA blocking solution (PBS phosphate buffer with 1% BSA, pH 7.4, the percentages representing mass percentages) at 37° C. for 2 hours. Sequential 10-fold serial dilutions of antibodies were added at 8 concentrations (0.0001 nM-100 nM, including 0 point control) in total at 100 μL/well. The plates were incubated at 37° C. for 1 hour, then washed 3 times and after anti-mouse IgG (Fab specific)-HRP (Sigma, A3682; 1: 5000 dilution) secondary antibodies were added at 100 μL/well, were incubated at 37° C. for 1 h. The plates were washed 3 times, TMB development fluid (EL0009, Huzhou Ying Chuang Biotechnology) was added at 100 μL/well and 50 μL 1N hydrochloric acid was added after incubation at 37° C. for 10 min to stop the development reaction. OD450 nm values were read with ELISA plate reader and the curve was fitted with GraphPad Prism6, and EC₅₀ values were calculated.

B1: mAb033 (antibody, V domains shown)
VH: EVQMVESGGDLVKPGDSLKLSCAASGFTFRSYGMSWVRQTPDKRLEWVATISSGDSYTYYPDSVKGRFTISRDNAKNTLYLQMSSLKSEDTALYYCARQIYYDYAYYFDFWGQGTTLTVSS
VL: DIVLTQSPASLAVSLGQRATISCRASESVSFRTSHLMHWYQQKPGQPPKLLIYGASNLESGVPARFSGSGSETDFTLNIHPVEEEDAAAYFCQQSIEDPPTFGGGTKLEIK
notes: Mouse hybridoma antibody
With B1 the “IC50 for inhibiting cytokine IFNα release, CpG-A stimulated human PBMC” value (human BDCA2 [1]) was 0.00408 nM, the EC50 (cynomolgus BDCA2) was 1.18 nM and the EC50 (human BDCA2 [2]) was 0.388 nM.

B2: Hu033-03-T1 (antibody, human IgG1, kappa)
heavy: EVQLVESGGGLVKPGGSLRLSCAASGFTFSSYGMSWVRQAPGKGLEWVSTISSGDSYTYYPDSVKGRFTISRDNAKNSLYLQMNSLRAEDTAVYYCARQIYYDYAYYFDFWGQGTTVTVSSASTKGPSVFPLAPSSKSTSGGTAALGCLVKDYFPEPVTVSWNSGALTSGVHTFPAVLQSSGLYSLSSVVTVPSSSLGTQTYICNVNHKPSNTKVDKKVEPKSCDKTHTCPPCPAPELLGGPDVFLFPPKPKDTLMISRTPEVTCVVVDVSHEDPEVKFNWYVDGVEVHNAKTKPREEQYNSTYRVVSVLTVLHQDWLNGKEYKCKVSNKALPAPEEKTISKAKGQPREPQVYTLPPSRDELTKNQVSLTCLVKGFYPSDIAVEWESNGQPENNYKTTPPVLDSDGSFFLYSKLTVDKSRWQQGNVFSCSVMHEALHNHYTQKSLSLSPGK
light: DIVLTQSPASLAVSPGQRATITCRASESVSFRTSHLMHWYQQKPGQPPKLLIYGASNLESGVPARFSGSGSETDFTLTINPVEAEDTANYFCQQSIEDPPTFGGGTKVEIKRTVAAPSVFIFPPSDEQLKSGTASVVCLLNNFYPREAKVQWKVDNALQSGNSQESVTEQDSKDSTYSLSSTLTLSKADYEKHKVYACEVTHQGLSSPVTKSFNRGEC
notes: Fc-mutated Hu033-03 (IgG1)
Work on B2 yielded a Kd (human FcγRIIA (R167) [3]) of 310 nM, a koff (human FcγRIIA (R167) [3]) of 0.232 s⁻¹ and a kon (human FcγRIIA (R167) [3]) of 750000 M⁻¹ s⁻¹. The Multiple of affinity (human FcγRIIA (H167) [4]) was 2.3 fold, the Multiple of affinity (human FcγRIIA (R167) [5]) was 4 fold and the Kd (human FcγRIIA (H167) [6]) was 490 nM. For the same binder, the koff (human FcγRIIA (H167) [6]) was 0.23 s⁻¹ and the kon (human FcγRIIA (H167) [6]) was 470000 M⁻¹ s⁻¹.

B3: Hu033-03-T2 (antibody, human IgG1, kappa)
heavy: EVQLVESGGGLVKPGGSLRLSCAASGFTFSSYGMSWVRQAPGKGLEWVSTISSGDSYTYYPDSVKGRFTISRDNAKNSLYLQMNSLRAEDTAVYYCARQIYYDYAYYFDFWGQGTTVTVSSASTKGPSVFPLAPSSKSTSGGTAALGCLVKDYFPEPVTVSWNSGALTSGVHTFPAVLQSSGLYSLSSVVTVPSSSLGTQTYICNVNHKPSNTKVDKKVEPKSCDKTHTCPPCPAPELLAGPDVFLFPPKPKDTLMISRTPEVTCVVVDVSHEDPEVKFNWYVDGVEVHNAKTKPREEQYNSTYRVVSVLTVLHQDWLNGKEYKCKVSNKALPAPEEKTISKAKGQPREPQVYTLPPSRDELTKNQVSLTCLVKGFYPSDIAVEWESNGQPENNYKTTPPVLDSDGSFFLYSKLTVDKSRWQQGNVFSCSVMHEALHNHYTQKSLSLSPGK
light: B2 light
notes: Fc-mutated Hu033-03 (IgG1)
B3 was tested, and the Kd (human FcγRIIA (R167) [3]) was 45.8 nM, the koff (human FcγRIIA (R167) [3]) was 0.0899 s⁻¹ and the kon (human FcγRIIA (R167) [3]) was 1.96e+06 M⁻¹ s⁻¹. The Multiple of affinity (human FcγRIIA (H167) [4]) was 10 fold, the Multiple of affinity (human FcγRIIA (R167) [5]) was 13.7 fold and the Kd (human FcγRIIA (H167) [6]) was 103 nM. For the same binder, the koff (human FcγRIIA (H167) [6]) was 0.0585 s⁻¹ and the kon (human FcγRIIA (H167) [6]) was 570000 M⁻¹ s⁻¹.

B4: Hu033-03-T3 (antibody, human IgG1, kappa)
heavy: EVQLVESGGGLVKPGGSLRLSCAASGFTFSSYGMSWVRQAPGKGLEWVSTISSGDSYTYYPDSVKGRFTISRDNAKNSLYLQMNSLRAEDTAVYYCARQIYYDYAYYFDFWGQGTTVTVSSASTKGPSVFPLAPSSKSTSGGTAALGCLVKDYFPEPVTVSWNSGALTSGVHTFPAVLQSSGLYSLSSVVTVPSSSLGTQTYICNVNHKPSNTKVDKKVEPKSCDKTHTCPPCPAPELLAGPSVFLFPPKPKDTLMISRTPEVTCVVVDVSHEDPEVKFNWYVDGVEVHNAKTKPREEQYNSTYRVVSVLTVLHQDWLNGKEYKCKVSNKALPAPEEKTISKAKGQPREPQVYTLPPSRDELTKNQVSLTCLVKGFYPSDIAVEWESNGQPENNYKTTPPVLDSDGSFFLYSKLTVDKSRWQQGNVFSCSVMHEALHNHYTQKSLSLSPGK
light: B2 light
notes: Fc-mutated Hu033-03 (IgG1)
Binder B4 has a Kd (human FcγRIIA (R167) [3]) of 303 nM, a koff (human FcγRIIA (R167) [3]) of 0.225 s⁻¹ and a kon (human FcγRIIA (R167) [3]) of 741000 M⁻¹ s⁻¹. For the same binder, the Multiple of affinity (human FcγRIIA (H167) [4]) was 7.3 fold, the Multiple of affinity (human FcγRIIA (R167) [5]) was 4.4 fold and the Kd (human FcγRIIA (H167) [6]) was 162 nM. For the same binder, the koff (human FcγRIIA (H167) [6]) was 0.0894 s⁻¹ and the kon (human FcγRIIA (H167) [6]) was 551000 M⁻¹ s⁻¹.

B5: Hu033-20-T1 (antibody, human IgG1, kappa)
heavy: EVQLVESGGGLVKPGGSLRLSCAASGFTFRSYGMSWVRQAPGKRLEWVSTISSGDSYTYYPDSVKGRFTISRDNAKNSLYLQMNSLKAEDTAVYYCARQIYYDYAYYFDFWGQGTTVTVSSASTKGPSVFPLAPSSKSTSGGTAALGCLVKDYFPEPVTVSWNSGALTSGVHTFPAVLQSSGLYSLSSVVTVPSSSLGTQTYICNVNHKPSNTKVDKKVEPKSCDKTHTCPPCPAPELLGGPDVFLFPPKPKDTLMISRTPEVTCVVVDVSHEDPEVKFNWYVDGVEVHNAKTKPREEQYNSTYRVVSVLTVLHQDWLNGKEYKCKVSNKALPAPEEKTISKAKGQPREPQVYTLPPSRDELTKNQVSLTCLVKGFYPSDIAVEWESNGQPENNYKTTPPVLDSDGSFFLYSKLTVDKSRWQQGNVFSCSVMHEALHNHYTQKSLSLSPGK
light: DIVMTQSPDSLAVSLGERATINCRASESVSFRTSHLMHWYQQKPGQPPKLLIYGASNLESGVPDRFSGSGSGTDFTLTISSLQAEDVAVYYCQQSIEDPPTFGGGTKVEIKRTVAAPSVFIFPPSDEQLKSGTASVVCLLNNFYPREAKVQWKVDNALQSGNSQESVTEQDSKDSTYSLSSTLTLSKADYEKHKVYACEVTHQGLSSPVTKSFNRGEC
notes: Fc-mutated Hu033-20 (IgG1)
With B5 the Kd (human FcγRIIA (R167) [3]) was 312 nM, the koff (human FcγRIIA (R167) [3]) was 0.249 s⁻¹ and the kon (human FcγRIIA (R167) [3]) was 798000 M⁻¹ s⁻¹. The Multiple of affinity (human FcγRIIA (R167) [7]) was 5.1 fold, the Multiple of affinity (human FcγRIIA (H167) [8]) was 2.5 fold and the Kd (human FcγRIIA (H167) [6]) was 489 nM. It also gave a koff (human FcγRIIA (H167) [6]) of 0.242 s⁻¹ and a kon (human FcγRIIA (H167) [6]) of 494000 M⁻¹ s⁻¹.

B6: Hu033-20-T2 (antibody, human IgG1, kappa)
heavy: B3 heavy with S30R, G44R, R87K
light: B5 light
notes: Fc-mutated Hu033-20 (IgG1)
With B6 the Kd (human FcγRIIA (R167) [3]) was 41.1 nM, the koff (human FcγRIIA (R167) [3]) was 0.0821 s⁻¹ and the kon (human FcγRIIA (R167) [3]) was 2e+06 M⁻¹ s⁻¹. It also gave a Multiple of affinity (human FcγRIIA (R167) [7]) of 17.7 fold, a Multiple of affinity (human FcγRIIA (H167) [8]) of 12.1 fold and a Kd (human FcγRIIA (H167) [6]) of 95.5 nM. For the same binder, the koff (human FcγRIIA (H167) [6]) was 0.0577 s⁻¹ and the kon (human FcγRIIA (H167) [6]) was 604000 M⁻¹ s⁻¹.

B7: Hu033-20-T3 (antibody, human IgG1, kappa)
heavy: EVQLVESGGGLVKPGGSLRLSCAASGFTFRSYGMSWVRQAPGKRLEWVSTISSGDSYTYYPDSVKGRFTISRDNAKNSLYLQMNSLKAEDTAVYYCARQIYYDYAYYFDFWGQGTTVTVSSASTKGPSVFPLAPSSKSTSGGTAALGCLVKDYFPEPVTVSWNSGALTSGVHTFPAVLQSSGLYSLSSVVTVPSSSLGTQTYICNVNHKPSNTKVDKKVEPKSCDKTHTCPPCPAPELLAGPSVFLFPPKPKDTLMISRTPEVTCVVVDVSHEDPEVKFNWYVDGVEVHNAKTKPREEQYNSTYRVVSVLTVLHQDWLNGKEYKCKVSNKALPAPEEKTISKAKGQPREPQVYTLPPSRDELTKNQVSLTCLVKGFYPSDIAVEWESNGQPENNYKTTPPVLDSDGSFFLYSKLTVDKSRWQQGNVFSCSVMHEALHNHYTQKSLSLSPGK
light: B5 light
notes: Fc-mutated Hu033-20 (IgG1)
Binder B7 has a Kd (human FcγRIIA (R167) [3]) of 279 nM, a koff (human FcγRIIA (R167) [3]) of 0.191 s⁻¹ and a kon (human FcγRIIA (R167) [3]) of 683000 M⁻¹ s⁻¹. It also gave a Multiple of affinity (human FcγRIIA (R167) [7]) of 6.3 fold, a Multiple of affinity (human FcγRIIA (H167) [8]) of 8.7 fold and a Kd (human FcγRIIA (H167) [6]) of 154 nM. The koff (human FcγRIIA (H167) [6]) was 0.087 s⁻¹ and the kon (human FcγRIIA (H167) [6]) was 563000 M⁻¹ s⁻¹.

B8: mAb034 (antibody, V domains shown)
VH: DVQLQESGPGLVKPSQSLSLTCSVTGYSITSGYYWNWIRQFPGNKLECMGYITYDGSNNYNPSLKDRISITRDTSKNQFFLKLNSVTTEDTATYYCARGGDYDDGGFAYWGHGTLVTVSA
VL: DIQMTQSPVSLSASVGETVTITCRASGNIHNYLAWYQQKQGKSPQLLVYNAKSLVDGVPSRFSGSGSGTQYSLKINSLQPEDFGSYYCQHFWIIPYTFGGGTKLEIK
notes: Mouse hybridoma antibody
B8 showed an EC50 [9] of less than 0.3 nM, an EC50 (cynomolgus BDCA2) of 1.96 nM and an EC50 (human BDCA2 [2]) of 0.705 nM.
